Values of other authors, collected in article PMC3037027.

Target: U2AF65 UHM (Homo sapiens) (UniProt P26368)
Assay: ITC

UniProt P26368, sequence (P26368 372-475, one chain of several): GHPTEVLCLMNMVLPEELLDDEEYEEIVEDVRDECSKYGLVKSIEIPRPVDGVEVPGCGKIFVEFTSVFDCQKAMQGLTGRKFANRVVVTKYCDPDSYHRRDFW

Kd: 12 nM
Substance: SF1 1-255 (from UniProt Q15637)
